In patent publication US20260335397A1, “TREATMENT OF GEOGRAPHIC ATROPHY” (Apellis Pharmaceuticals, Inc., priority 2022, published 2026):

Tests used:
Format in all cases: in vivo, human
[1] = system: geographic atrophy (GA) secondary to age-related macular degeneration (AMD); test: Post-hoc SD-OCT analysis of PR and RPE loss, OAKS and DERBY studies; settings: 12 months; for RPE loss, difference EM vs EOM / PR loss, difference EM vs EOM: monthly vs every other month; for PR loss, difference EM vs. Sham Pooled / RPE loss, difference EM vs. Sham Pooled: monthly
From the text: (§1) LS means estimated from MMRM analysis. The mITT population was used for the analysis, defined as all randomized patients who received at least 1 injection of pegcetacoplan or sham and had baseline and at least one post-baseline value of GA lesion area in the study eye. FOV=field of view; LS=least square; M=month; mITT=modified intent-to-treat; MMRM=mixed-effects model for repeated measures; PEOM=pegcetacoplan every other month; PM=pegcetacoplan monthly; PR=photoreceptor; RPE=retinal pigment epithelium; SE=standard error.
as §1, with “FOV-field” for “FOV=field”
Spectral-domain optical coherence tomography (OCT) allows for cross sectional visualization of the neurosensory retina, including the photoreceptor (PR) layer, as well as the retinal pigment epithelium (RPE) and other retinal structures. […] A post-hoc analysis that assessed the ability of pegcetacoplan treatment to reduce PR and RPE loss in patients with GA was performed using SD-OCT images acquired from a subgroup of patients in the OAKS and DERBY studies, namely those for whom Spectralis SD-OCT images were available. Automated, deep learning based segmentation of RPE loss and PR thickness on SD-OCT volumes acquired at baseline and months 2, 4, 6, 8, 10, and 12 was performed according to previously published methods. The difference in the change from baseline of RPE loss area and of PR loss area (determined based on PR thickness measurements) was compared among the monthly, every other month, and pooled sham treatment arms using LS Mean MMRM modeling. […] The magnitude of the treatment effects at 12 months, as determined using LS mean MMRM modeling, are summarized below.

[2] = system: geographic atrophy (GA) secondary to age-related macular degeneration (AMD); test: Post-hoc analysis of BCVA and VFQ-25 by lesion distance from foveal center, OAKS and DERBY; settings: lesions ≥250 μm from foveal center, 24 months
Description: This Example describes a post-hoc analysis of results from the OAKS and DERBY studies described in Example 1. Functional data by lesion distance from foveal center were assessed over 24 months.
In the patient subgroup having lesions ≥250 μm away from the foveal center, pegcetacoplan slowed vision loss and improved quality of life in patients. […] This subgroup included patients in the mITT sample with non-missing baseline measurements of RPE central 3 mm occupancy (C30) in regions 1-5 and lesion distance from fovea center. Mean changes were calculated among patients with BCVA measurements at each timepoint and thus samples varied across outcomes shown with no imputation for missing data. Adjusted differences from bootstrapped inverse probability weighted regressions controlling for baseline C30 in regions 1-5, study and fellow eye GA characteristics, study eye visual acuity, and patient characteristics.
This subgroup included patients in the mITT sample with non-missing baseline measurements of RPE central 3 mm occupancy (C3O) in regions 1-5 and lesion distance from fovea center. Mean changes were calculated among patients with BCVA measurements at each timepoint and thus samples varied across outcomes shown with no imputation for missing data. […]

[3] = Phase 3 safety: TEAEs and tolerability, OAKS and DERBY; settings: for Endophthalmitis (serious ocular TEAE), % / Endophthalmitis (serious ocular TEAE), M (number of events): infectious and non-infectious
Description: All randomized subjects returned every month to the clinical site for assessments and additional pegcetacoplan or sham injections according to their randomization scheme until Month 12. From Month 12 onwards, subjects return to the clinical site based on their randomized treatment schedule (monthly or EOM) and follow the treatment regimen and assessments outlined in the Visit Schedule until Month 24. Safety was assessed throughout the study by a number of evaluations including: monitoring of AEs, preinjection and postinjection monitoring, blood and urine samples collected, physical examination, vital signs, and follow-up phone calls. Blood samples were also be collected for anti-therapeutic antibodies, genotyping, and clinical repository (if the subject consented to this portion).
Safety endpoints included incidence and severity of ocular and systemic treatment-emergent adverse events; incidence of ADA directed against pegcetacoplan peptide or PEG; incidence of new active CNV in the study eye; incidence of new onset of subclinical CNV in the study eye; incidence of subjects who lost letters based on NL-BCVA categories (≥15, ≥15-<30, ≥30 ETDRS letters); change/shift from baseline in clinical labs and incidence of abnormal lab values; change from baseline in vital signs and incidence of abnormal vital sign results; shift from baseline in ocular examination assessments including slit-lamp examination and indirect ophthalmoscopy; change from baseline in Intra Ocular Pressure (IOP) and incidence of IOP above specified thresholds; and change/shift from baseline in ocular imaging assessments (including specular microscopy; select sites).
The Safety set consisted of all subjects randomized who received at least one injection of pegcetacoplan or sham. Subjects were analyzed according to the actual treatment received. […] This population was used for all safety analyses.

[4] = DERBY, PEOM (N = 208), 24 months
[5] = OAKS, PEOM (N = 212), 24 months

Poly(oxy-1,2-ethanediyl), α-hydro-ω-hydroxy-, 15,15′-diester with N-acetyl-L-isoleucyl-L-cysteinyl-L-valyl-1-methyl-L-tryptophyl-L-glutaminyl-L-α-aspartyl-L-tryptophylglycyl-L-alanyl-L-histidyl-L-arginyl-L-cysteinyl-L-threonyl-2-[2-(2-aminoethoxy)ethoxy]acetyl-N^6-carboxy-L-lysinamide cyclic (2->12)-(disulfide) [pegcetacoplan]
PR loss and RPE loss compared with sham ([1]; DERBY and OAKS, monthly and every other month): statistically significant reduction in PR loss and RPE loss at 12 months | PR loss, difference every other month vs. Sham pooled ([1]; DERBY, every other month, p<0.0001): −61.0% | RPE loss, difference every other month vs. Sham pooled ([1]; DERBY, every other month, p<0.0065): −20.4% | RPE loss, difference EM vs EOM ([1]; DERBY, p=0.0103): −19.6% | PR loss, difference EM vs EOM ([1]; DERBY, p=0.0785): −42% | PR loss, difference EM vs. Sham Pooled ([1]; DERBY, p<0.0001): −77.4% | RPE loss, difference EM vs. Sham Pooled ([1]; DERBY, p<0.0001): −36.0% | PR Loss, difference EOM vs. Sham pooled ([1]; OAKS, every other month, p<0.0001): −47.7% | RPE loss, difference every other month vs. Sham pooled ([1]; OAKS, every other month, p=0.0342): −14.8% | PR loss, difference EM vs EOM ([1]; OAKS, p=0.0049): −51.3% | RPE loss, difference EM vs EOM ([1]; OAKS, p=0.5282): −5.7% | PR loss, difference EM vs. Sham Pooled ([1]; OAKS, p<0.0001): −74.5% | RPE loss, difference EM vs. Sham Pooled ([1]; OAKS, p=0.0070): −19.7% | quality of life assessed by VFQ-25, better relative to sham [2]: over 4 points | BCVA change from baseline, relative to sham ([2]; monthly and every other month combined, baseline BCVA 73 (sham 75)): less of a BCVA change from baseline at 24 months | All TEAEs, % [3, 4]: (86.5%) | Iridocyclitis (serious ocular TEAE), % [3, 4]: 0.5% | Iridocyclitis (serious ocular TEAE), M (number of events) [3, 4]: 1 M | Non-ocular TEAEs, patients, % [3, 4]: (68.3%) | Ocular TEAEs in study eye, patients, % [3, 4]: (51.9%) | Serious ocular TEAEs in the study eye, % [3, 4]: 1.0% | Serious ocular TEAEs in the study eye, M (number of events) [3, 4]: 4 M | Uveitis (serious ocular TEAE), % [3, 4]: 1.0% | Uveitis (serious ocular TEAE), M (number of events) [3, 4]: 2 M | Visual acuity reduced (serious ocular TEAE), % [3, 4]: 0.5% | Visual acuity reduced (serious ocular TEAE), M (number of events) [3, 4]: 1 M | All TEAEs, % ([3]; DERBY, PM (N = 206), 24 months): (86.4%) | Non-ocular TEAEs, patients, % ([3]; DERBY, PM (N = 206), 24 months): (79.1%) | Ocular TEAEs in study eye, patients, % ([3]; DERBY, PM (N = 206), 24 months): (60.7%) | Optic ischemic neuropathy (serious ocular TEAE), % ([3]; DERBY, PM (N = 206), 24 months): 0.5% | Optic ischemic neuropathy (serious ocular TEAE), M (number of events) ([3]; DERBY, PM (N = 206), 24 months): 1 M | Retinal tear (serious ocular TEAE), % ([3]; DERBY, PM (N = 206), 24 months): 0.5% | Retinal tear (serious ocular TEAE), M (number of events) ([3]; DERBY, PM (N = 206), 24 months): 1 M | Serious ocular TEAEs in the study eye, % ([3]; DERBY, PM (N = 206), 24 months): 1.9% | Serious ocular TEAEs in the study eye, M (number of events) ([3]; DERBY, PM (N = 206), 24 months): 4 M | Vitritis (serious ocular TEAE), % ([3]; DERBY, PM (N = 206), 24 months): 1.0% | Vitritis (serious ocular TEAE), M (number of events) ([3]; DERBY, PM (N = 206), 24 months): 2 M | All TEAEs, % [3, 5]: (88.2%) | Non-ocular TEAEs, patients, % [3, 5]: (77.8%) | Ocular TEAEs in study eye, patients, % [3, 5]: (58.0%) | Retinal detachment (serious ocular TEAE), % [3, 5]: 0.5% | Retinal detachment (serious ocular TEAE), M (number of events) [3, 5]: 1 M | Serious ocular TEAEs in the study eye, % [3, 5]: 1.9% | Serious ocular TEAEs in the study eye, M (number of events) [3, 5]: 4 M | Endophthalmitis (serious ocular TEAE), % [3, 5]: 1.4% | Endophthalmitis (serious ocular TEAE), M (number of events) [3, 5]: 3 M | All TEAEs, % ([3]; OAKS, PM (N = 213), 24 months): (90.1%) | Hyphema (serious ocular TEAE), % ([3]; OAKS, PM (N = 213), 24 months): 0.5% | Hyphema (serious ocular TEAE), M (number of events) ([3]; OAKS, PM (N = 213), 24 months): 1 M | Non-ocular TEAEs, patients, % ([3]; OAKS, PM (N = 213), 24 months): (81.7%) | Ocular TEAEs in study eye, patients, % ([3]; OAKS, PM (N = 213), 24 months): (62.4%) | Optic ischemic neuropathy (serious ocular TEAE), % ([3]; OAKS, PM (N = 213), 24 months): 0.9% | Optic ischemic neuropathy (serious ocular TEAE), M (number of events) ([3]; OAKS, PM (N = 213), 24 months): 2 M | Papilledema (serious ocular TEAE), % ([3]; OAKS, PM (N = 213), 24 months): 0.5% | Papilledema (serious ocular TEAE), M (number of events) ([3]; OAKS, PM (N = 213), 24 months): 1 M | Retinal detachment (serious ocular TEAE), % ([3]; OAKS, PM (N = 213), 24 months): 0.5% | Retinal detachment (serious ocular TEAE), M (number of events) ([3]; OAKS, PM (N = 213), 24 months): 1 M | Serious ocular TEAEs in the study eye, % ([3]; OAKS, PM (N = 213), 24 months): 2.3% | Serious ocular TEAEs in the study eye, M (number of events) ([3]; OAKS, PM (N = 213), 24 months): 7 M | Endophthalmitis (serious ocular TEAE), % ([3]; OAKS, PM (N = 213), 24 months): 0.9% | Endophthalmitis (serious ocular TEAE), M (number of events) ([3]; OAKS, PM (N = 213), 24 months): 2 M | tolerability ([3]; both Phase 3 studies): well tolerated
